Measurements published in the supplement of paper PMC9170038.

Test system: K4 kissing-loop RNA reporter
Experiment: apparent KD of K4 kissing-loop reporter; higher = weaker reporter binding
Conditions: Eterna round: R107
Method: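 RNA-MaP round R107: designed RNA switches with theophylline, tryptophan, arginine or FMN aptamers are transcribed on-chip within common flanks. They are titrated with a labelled K4 kissing-loop RNA reporter in RNA-MaP buffer (100 mM Tris pH 7.5, 80 mM KCl, 4 mM MgCl2), without ligand or with the indicated ligand. Median apparent KD per design.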

[1] = input ligand: theophylline 20 uM
[2] = input ligand: tryptophan 2.4 mM
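Note: bound reporter read as fluorescence of individual clusters on recovered sequencing chips by microscopy, with normalized cluster intensities fitted with a binding model.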

Sequence | apparent KD of K4 kissing-loop reporter (input ligand: FMN 200 uM) | apparent KD of K4 kissing-loop reporter (input ligand: arginine 13.2 mM) | apparent KD of K4 kissing-loop reporter (input ligand: none) | apparent KD of K4 kissing-loop reporter [1] | apparent KD of K4 kissing-loop reporter [2]
GUAGAUAGGCUACAUCUCUAGUCUAAACACUAGGAUAUCAGGAAACUGAGAAGGAGUGUCAUUGGAGUGAUGUUCCAAGAAUAAU [KL-SSFMN-A17] | 166 nM | 195 nM | 185 nM | 225 nM | 167 nM
GUAGGAUGAGGAGGAGGAUGAAAUACUGAAGGAGCGCAGAGAAAUGCAGGUAGGUCGCGGUAAGGAAGUAUAGUGAUGUUAUAUA [#07 K4 Arginine A Same State] | 414 nM | 367 nM | 664 nM | 755 nM | 449 nM
GUAGGAUGAGGAGGAGGAUGAAUUACUGAAGGAGCGCAAAGAAAUGCAGGUAGGUCGCGGUAAAGAAGUAUAGUGAUGUUAUAUA [SSArgA.E] | 400 nM | 301 nM | 413 nM | 426 nM | 310 nM
GUAUAUCGAACUGAUACCAGAGAAUAAAGCAGUGAUGUUGCAUAUAUAAAUAAGACUCGACUCCCUUGGCAGCGGGAAGAUAUAC [On purpose 1] | 170 nM | 231 nM | 197 nM | 280 nM | 146 nM
GUAUCGCUAGGAGGAUAUUCCAUUUUACAUAGAAAUGGCUAUGCGAAGUGAUGUUUCGAUUUACGGGAAGAAGGCCUAGUGAUAC [FMN B 22] | 160 nM | 148 nM | 148 nM | 177 nM | 155 nM
GUAUCGCUAGGAGGAUAUUUCAAUUUGACUCUUUGAGUUAAUACGGAGUGAUGUUCCGUUUUACGGAAAGAAGGCCUAGUGAUAC [FMN B 14] | 115 nM | 150 nM | 192 nM | 172 nM | 166 nM
GUAUGUGGAAACACGUACUUAUAUCCUCGACAGGAUAUGCGGAAACGCAGAAGGGUCGCCAACGAGUUUAUCCAGUGAUGUUGGA [Ex FMN A 15] | 347 nM | 296 nM | 362 nM | 335 nM | 350 nM
GUAUGUGGAAACACGUACUUGUAUCCUAGGAAGGAUAUGCGGAAACGCAGAAGGUCCACCGGCGAGUUUAUCCAGUGAUGUUGGA [Ex FMN A 10] | 260 nM | 275 nM | 274 nM | 318 nM | 248 nM
GUCCACACUGCAGGAUAUGGAGAAAUAGCGAGGGAGCUUGGAAGCACGCCUCUGGCAGUGAUGUUGCCAGAAGGGCGGUGCGGCG [Dilazasole] | 106 nM | 76.9 nM | 75.2 nM | 76.9 nM | 80.8 nM
GUCUUACUAUAGGAUACCAGCAUGCAAGGAGUGAUGUUCCCGUCAUAUGAGGAGUACCGCUGCCCUUGGCAGCCUCUUGUAAGUU [theeternabot_sameState_KL_Theo_B_1] | 502 nM | 253 nM | 353 nM | 411 nM | 316 nM
GUGCAAAGCACCGGCACGAGCAGCUUAAAGGAGGAUAUGACGAAAGUCAGAAGGUUUAGUGAUGUUAGGCCUUGCUUGAGUCGAA [#01 K4 FMN A Exclusion] | 326 nM | 265 nM | 282 nM | 413 nM | 270 nM
GUGCGGCUAGUGAUGUUGGUUGCGUGGGAAGGAGCGCAGAAACAUGCAGGUAGGUCGCCCACACCUCUGAAAGGAGGCUAAUUCA [Bisobi] | 277 nM | 128 nM | 163 nM | 213 nM | 134 nM
GUGGCACGAAAGUGCCACGCAUCCUCUGGCUAGGAUAUCUGGAAACAGAGAAGGAGCUCAUGAGUGAUGUUCAUCUAGAGGAUGC | 827 nM | 537 nM | 1010 nM | 978 nM | 947 nM
GUGGCGGGCCAAGGAUAUAUUUUGGAGUGAUGUUGUUCAUUUAUUUGAGCUAGUGAUGUUGGUCGAAUAGAAGGUGGCCCGCCAC [whbob_Ex_FMNB__2th220] | 69.9 nM | 27.2 nM | 52.8 nM | 44.7 nM | 45.8 nM
GUGUCCUAGUCGGCCGCCACUGGGUGCAAAAUAGAAGGAGCAUUGCACAUCAGUGAUGUUGAUGUCAGGACCGGGACUAGGGUGU [KL-SSTryp-B5 Brourdwalk1] | 652 nM | 406 nM | 597 nM | 563 nM | 439 nM
GUUACGCAUGGAAGGAGCGCGAAUUUAAUUAGUGAGUGAUGUUCACAUAAAAUAUAUAAUACGCAGGUAGGUCGCCAUGUGUAAC [Ex Arginine B K4 1] | 80.8 nM | 83.1 nM | 79.3 nM | 82.8 nM | 75 nM
GUUAUUCUAAACGCAGUAGUGAUGUUGAUGCGAGGACCGGUACGGCCGCCACUCGACUGCCGUCACGCCCGUCCAACAGCCGGAG [theeternabot_exclusion_KL_Trp_A_20] | 431 nM | 142 nM | 478 nM | 254 nM | 268 nM
UAAAAUAAAUAAUAGAGAUAAUUACUCGAAGGAGCGACGAAUUCGUCAGGUAGGUCGCGAGUGAUGUUCGCAAAUAUUAUCUCAU [AK3 Exc Arginine A] | 212 nM | 328 nM | 295 nM | 345 nM | 261 nM
UAAAUCACACGAGAUACCAGCCAAACCGAACUUGAGCACUAUAGUGAUGUUAUAUUGCGAGGCCCUUGGCAGCUCAAUAGAACAA [theeternabot_sameState_KL_Theo_B_11] | 213 nM | 174 nM | 190 nM | 145 nM | 182 nM
UAACGCUGACAGCAACAAUUCGGGCCUGAUACCAGCAAUUUUUCAUGCCCUUGGCAGCAGAGUGAUGUUUUCUGUCUAUUUAGUC [theeternabot_exclusion_KL_Theo_A_23] | 628 nM | 723 nM | 864 nM | 700 nM | 520 nM
UAACUCUUGCAGUGAUGUUGCAAGUAUGCUCAGGAUAUCAGGAAACUGAGAAGGGAGUUUCCUGAGCUUCUGCAAGAGCUCAGAA [KL-SSFMN-A6] | 618 nM | 408 nM | 547 nM | 375 nM | 382 nM

Sequence | apparent KD of K4 kissing-loop reporter (input ligand: FMN 200 uM) | apparent KD of K4 kissing-loop reporter (input ligand: arginine 13.2 mM) | apparent KD of K4 kissing-loop reporter (input ligand: none) | apparent KD of K4 kissing-loop reporter [1] | apparent KD of K4 kissing-loop reporter [2]
UAAGAAUAAGAUGCAGUGAUGUUGCAUCUACGAGGACCGGUACGGCCGCCACUCGAGGUCCUCGAACUGCAUCAGAGGACAAUAA [(H,1)-(H,2)-(Trp1)-(Trp2)-(T)'-(H)'-(T)''] | 253 nM | 184 nM | 286 nM | 390 nM | 300 nM
UAAGAAUAAGUAGCAGUGAUGUUGCUACUACGAGGACCGGUACGGCCGCCACUCGAGCCGUACCAUAACAUCACUGAGGUACGAA [(H1)-(H2)-(Trp1)-(Trp2)-(T)'-(H)'-(T)''] | 231 nM | 175 nM | 264 nM | 292 nM | 272 nM
UAAGAAUAGCAUGCAGUGAUGUUGCAUGUCCGAGGACCGGUACGGCCGCCACUCGAGUCCUCGAACAUGCACCGAGGAAUAACAA [#19 K4 Tryptophan A Same State] | 108 nM | 79.6 nM | 109 nM | 107 nM | 124 nM
UAAUAAAUUCCAGCGAUAUCGCUCUUCGAAGGAGCGGACGAAAGUCCAGGUAGGUCGCGGAGAGUGAUGUUCUUUGCGGCGCUGG [whbob_Ex_Arginine_A_2t133] | 450 nM | 177 nM | 356 nM | 298 nM | 266 nM
UAAUCACUCGAACUUGCAACUCGAGUGGAACGAGGACCGGUACGGCCGCCACUCGAUAACUUGCAGUGAUGUUGCAAGUAAGAAU [(T)''-(K)'-(T)'-(T1)-(T2)-(K1)-(K2)_Design8] | 333 nM | 341 nM | 411 nM | 411 nM | 219 nM
UAAUGUGGCACAGGAUAUACUGAUUGGAGUGAUGUUCCAAACAUGAACAAGAGACUUUUACAAGAAGUAGAAGGGUGUUAGAUAU [Exclusion FMN B GF 19] | 269 nM | 265 nM | 223 nM | 295 nM | 223 nM
UACAAACGUAGUGAUGUUACGUACUCUGAUACCAGACAACUCUAAGUCCCUUGGCAGCAGUCACUUAGCUUAUUAUUUUCUCAAA [JR_Nu_ExcTheophyA_Sub026] | 106 nM | 134 nM | 116 nM | 130 nM | 103 nM
UACAGGGAUAGUGAUGUUAUCCCAUGUGAUACCAGUGCCAUCCAACACCCUUGGCAGCAUACGGGCAGUGAUGUUGUUCUUGGUA [#16 K4 Theophylline A Exclusion] | 89.8 nM | 79.8 nM | 86 nM | 86.1 nM | 80.1 nM
UACAUAUUAUUUAACAUAAAUUUUACAGAAGGAGCGUGAUCAUUCACAGGUAGGUCGCUGAACUAGUGAUGUUAGUUUUAUUUUU [JR_Nu_ExcArginiA_Sub025] | 62.7 nM | 96.1 nM | 71.5 nM | 97 nM | 57.3 nM
UACUAUAGUGAUGUUAUAGAUAAACCAGAUACCAGUGUAACAUAACACCCUUGGCAGCUGAUGAGGGAACAUAUGAAUGCAUAUG [AstrosSSTHe-A#5newdesignED5.11] | 196 nM | 166 nM | 179 nM | 178 nM | 163 nM
UACUAUAGUGAUGUUAUAGAUAAACCAGAUACCAGUGUAACAUAACACCCUUGGCAGCUGAUGAGGGAACUAUUGAAAACAAUAG [AstroSTH-A#7newdesignED4.86] | 248 nM | 203 nM | 267 nM | 223 nM | 217 nM
UACUAUAGUGAUGUUAUAGAUAAACCAGAUACCAGUGUAACAUAACACCCUUGGCAGCUGAUGAGGGAAGAUAUCAAAAGAUAUC [AstroSTH-A#9newdesignED4.70] | 218 nM | 218 nM | 202 nM | 247 nM | 199 nM
UAGUCCUAGUGAUCGUUAUCACGUGGUGGGCGAGGACCGGUACGGCCGCCACUCGACUAUGCAGUGAUGUUGCAAUCCGGACAAU [Exclusion - Tryptophan A (Freestyle 15)] | 294 nM | 436 nM | 477 nM | 325 nM | 145 nM
UAGUGUCGCGCAGGAUAUACUGAUUGGAGUGAUGUUCCAAACAUGCACGUGUGACUUUUACAAGAAGUAGAAGGGCGUGAGACAU [Exclusion FMN B GF 22] | 303 nM | 200 nM | 184 nM | 198 nM | 179 nM
UAUAUAGUGACGGCCGCCACUAUUGUGAUGUUAUUGUUAGAGUGAUGUUUUGUUGUUUAAUUUUGUAGGACCGGGUUAUAUGUUA [xxzsmullin] | 846 nM | 451 nM | 568 nM | 530 nM | 543 nM
UAUCUAUGCUCGGCCGCCACUAGGACCGGGAUCUCUCUAGUGAUGUUAGUCUGAUCGGCCGCCACUAGGACCGGGAGUGUAGAUA [KL-SSTryp-B15 #DoubleAptamer] | 101 nM | 88.7 nM | 91.2 nM | 104 nM | 80.3 nM
UAUCUAUGCUCGGCCGCCACUAGGACCGGGUAGUCUCUAGUGAUGUUAGUCUCUACGGCCGCCACUAGGACCGGGAGUGUAGAUA [KL-SSTryp-B16 #DoubleAptamer] | 286 nM | 235 nM | 224 nM | 225 nM | 82.5 nM
UAUGAAGGUGGAGGAUAUUGAUUGAAUCUUGGUCUGGAGUGAUGUUCCGGGAAGCCUUGGAUUCAUCGAGAAGGCCAAGGAUAGU [Extra 1] | 123 nM | 269 nM | 307 nM | 263 nM | 198 nM
UAUUAAUUGUCAGGAUAUCGUAAUCGAGUGAUGUUCGAAUAUCGACGAUAGUCGAUAUUAUUUAUACGAGAAGGGACAUUAUUUA [JR_SSFMNB_Sub004] | 366 nM | 298 nM | 417 nM | 321 nM | 332 nM
UCACCGCCUAGUGAUGUUACGCGACUCAGAAAGGAUAUAAUCAAUCUUAGAAGGUUCACACCGUAUGGAUAUUAUCUAUCUCGUU [theeternabot_exclusion_KL_FMN_A_39] | 456 nM | 284 nM | 427 nM | 437 nM | 398 nM
UCCUAGGCUCGAAAGAGCCUAGGAUAUACUCAGGAUAUCCGGAAACGGAGAAGGGAGUAACUAGUGAUGUUAGGGAUUCCCUAUU | 260 nM | 96 nM | 109 nM | 98.7 nM | 96.5 nM
